Where two headings read alike, the source gives them in different places. Bridges are numbered along the chain shown (N, C = ends). Where no end group is shown, it is not given here.
Tests used:
[1] = target: T1, human MCH receptor expressed from the open reading frame cDNA SEQ. ID. NO. 1 in 293-AEQ17 cells (human, UniProt Q99705 1-353); experiment: cell-based or functional assay
[2] = target: T2, human MCH receptor (membranes from a stable CHO or HEK-293 cell line) (human, UniProt Q99705 1-353); experiment: competition vs [125I]-human MCH (Phe13,Tyr19); human MCH receptor cell membranes (Example 3)
T2 construct: whole, on cells; also called cloned human MCH receptor (CHO clone)
T2 sequence (Q99705 whole entry): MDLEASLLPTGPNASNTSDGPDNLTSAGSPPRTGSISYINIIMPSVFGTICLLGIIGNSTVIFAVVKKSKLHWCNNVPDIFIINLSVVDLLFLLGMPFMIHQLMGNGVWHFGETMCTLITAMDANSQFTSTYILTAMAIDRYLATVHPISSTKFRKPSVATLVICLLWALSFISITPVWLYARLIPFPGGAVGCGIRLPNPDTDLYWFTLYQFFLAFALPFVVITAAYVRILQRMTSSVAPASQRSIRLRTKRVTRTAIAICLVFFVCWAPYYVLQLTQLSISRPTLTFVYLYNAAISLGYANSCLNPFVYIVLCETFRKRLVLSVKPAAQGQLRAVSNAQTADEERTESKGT

[3] = target: T1, human MCH receptor expressed from the …; experiment: cell-based or functional assay; remark: listed apart in the source
[4] = target: T1, human MCH receptor expressed from the …; experiment: cell-based or functional assay; remark: listed apart in the source
[5] = target: T2, human MCH receptor (membranes from a …); experiment: SPA competition vs [125I]-human MCH (Phe13,Tyr19); human MCH receptor cell membranes
[6] = target: T1, human MCH receptor expressed from the …; experiment: cell-based or functional assay; remark: listed apart in the source
[7] = target: T2, human MCH receptor (membranes from a …); experiment: competition vs [125I]-human MCH (Phe13,Tyr19); human MCH receptor cell membranes (Example 3); remark: listed apart in the source

T1 sequence (Q99705 whole entry): as above

Binder | Activation % [1] [%] | EC50 [1] [nM] | IC50 [2] [nM] | Activation % [6] [%] | also measured
H-CMLGRVYRPC-NH2 (disulfide 1-10, ID; NO; 7 peptide; MCH position numbering) [MCH analog SEQ. ID. NO. 37 (position 6: H)] | 120 | 809 | 12 |  | 
RCMLGRVXRPC (Cha (cyclohexylalanine) at position 13; N-terminal acetyl, C-terminal amide, Cys-Cys disulfide as in SEQ. ID. NO. 7) [MCH analog SEQ. ID. NO. 69 (position 13: Cha)] |  |  |  |  | Activation % [3]: 93%
XCMLGRVYRPC (Ac-Nle (acetyl-norleucine) at position 6; C-terminal amide, Cys-Cys disulfide as in SEQ. ID. NO. 7) [MCH analog SEQ. ID. NO. 32 (position 6: Ac-Nle)] | 107 |  |  |  | 
Ac-CMLGRVYRPC-NH2 (disulfide 1-10; SMILES CSCC[C@@H]1NC(=O)[C@@H](NC(C)=O)CSSC[C@@H](C(N)=O)NC(=O)[C@@H]2CCCN2C(=O)[C@H](CCCNC(=N)N)NC(=O)[C@H](Cc2ccc(O)cc2)NC(=O)[C@H](C(C)C)NC(=O)[C@H](CCCNC(=N)N)NC(=O)CNC(=O)[C@H](CC(C)C)NC1=O, ID; NO; 7 peptide; MCH position numbering) [MCH analog SEQ. ID. NO. 38 (position 6: Ac)] | 82 | 144 | 1.6 |  | 
XCMLGRVYRPC (Ac-D-Ser at position 6; C-terminal amide, Cys-Cys disulfide as in SEQ. ID. NO. 7, ID; NO; 7 peptide; MCH position numbering) [MCH analog SEQ. ID. NO. 45 (position 6: Ac-D-Ser)] | 93 |  | 2.3 |  | 
XCMLGRVYRPC (Ac-D-Glu at position 6; C-terminal amide, Cys-Cys disulfide as in SEQ. ID. NO. 7) [MCH analog SEQ. ID. NO. 46 (position 6: Ac-D-Glu)] | 85 |  |  |  | 
Ac-CMLGRVYRPCWQV (disulfide 1-10 (inferred)) [MCH analog SEQ. ID. NO. 12: Ac-Cys-Met-Leu-Gly-Arg-Val-Tyr-Arg-Pro-Cys-Trp-Gln-Val] |  |  |  |  | % Activation at 10 µM [4]: 3%; EC50 [4]: 492 nM; IC50 [5]: 6.4 nM
RCMLGRVYRPC-NH2 (disulfide 2-11 (inferred), ID; NO; 7 peptide; MCH position numbering) [MCH analog SEQ. ID. NO. 39 (position 6: Arg)] | 106 | 14 | 0.13 |  | 
RCMLXRVYRPC (γ-Abu (gamma-aminobutyric acid) at position 10; N-terminal acetyl, C-terminal amide, Cys-Cys disulfide as in SEQ. ID. NO. 7) [MCH analog SEQ. ID. NO. 61 (position 10: γ-Abu)] |  |  |  | 101 | 
XCMLGRVYRPC (Ac-D-Arg at position 6; C-terminal amide, Cys-Cys disulfide as in SEQ. ID. NO. 7, ID; NO; 7 peptide; MCH position numbering; 15 (D-Arg^6)) [MCH analog SEQ. ID. NO. 41 (position 6: Ac-D-Arg)] | 86 | 45 | 0.46 |  | 
RCMLXRVYRPC (β-Ala at position 10; N-terminal acetyl, C-terminal amide, Cys-Cys disulfide as in SEQ. ID. NO. 7) [MCH analog SEQ. ID. NO. 60 (position 10: β-Ala)] |  |  |  | 3.2 | EC50 [6]: > 1000 nM
XCMLGRVYRPC (Ac-D-Asn at position 6; C-terminal amide, Cys-Cys disulfide as in SEQ. ID. NO. 7) [MCH analog SEQ. ID. NO. 44 (position 6: Ac-D-Asn)] | 94 |  |  |  | 
RCMLGRVXRPC (p-fluoro-phenylalanine at position 13; N-terminal acetyl, C-terminal amide, Cys-Cys disulfide as in SEQ. ID. NO. 7) [MCH analog SEQ. ID. NO. 66 (position 13: Phe(pF))] |  |  |  |  | Activation % [3]: 98%
RCMLXRVYRPC (D-Nle at position 10; N-terminal acetyl, C-terminal amide, Cys-Cys disulfide as in SEQ. ID. NO. 7) [MCH analog SEQ. ID. NO. 56 (position 10: D-Nle)] |  |  |  | 33 | 
Ac-ACMLGRVYRPC-NH2 (disulfide 2-11; SMILES CSCC[C@@H]1NC(=O)[C@@H](NC(=O)[C@H](C)NC(C)=O)CSSC[C@@H](C(N)=O)NC(=O)[C@@H]2CCCN2C(=O)[C@H](CCCNC(=N)N)NC(=O)[C@H](Cc2ccc(O)cc2)NC(=O)[C@H](C(C)C)NC(=O)[C@H](CCCNC(=N)N)NC(=O)CNC(=O)[C@H](CC(C)C)NC1=O, ID; NO; 7 peptide; MCH position numbering) [MCH analog SEQ. ID. NO. 31 (position 6: Ac-Ala)] | 135 | 114 | 27 |  | 
SCMLGRVYRPC (Ac-Ser at position 6 (N-terminal acetyl); C-terminal amide, Cys-Cys disulfide as in SEQ. ID. NO. 7, ID; NO; 7 peptide; MCH position numbering) [MCH analog SEQ. ID. NO. 35 (position 6: Ac-Ser)] | 120 | 207 | 4.5 |  | 
RCMLLRVYRPC (N-terminal acetyl, C-terminal amide, Cys-Cys disulfide as in SEQ. ID. NO. 7, ID; NO; 7 peptide; MCH position numbering) [MCH analog SEQ. ID. NO. 48 (position 10: Leu)] |  |  |  | 106 | EC50 [6]: 23 nM; IC50 [7]: 0.06 nM
ECMLGRVYRPC (Ac-Glu at position 6 (N-terminal acetyl); C-terminal amide, Cys-Cys disulfide as in SEQ. ID. NO. 7, ID; NO; 7 peptide; MCH position numbering) [MCH analog SEQ. ID. NO. 36 (position 6: Ac-Glu)] | 113 | 935 | 19 |  | 
RCMLSRVYRPC (N-terminal acetyl, C-terminal amide, Cys-Cys disulfide as in SEQ. ID. NO. 7, ID; NO; 7 peptide; MCH position numbering) [MCH analog SEQ. ID. NO. 52 (position 10: Ser)] |  |  |  | 104 | EC50 [6]: 65 nM; IC50 [7]: 0.32 nM
RCMLNRVYRPC (N-terminal acetyl, C-terminal amide, Cys-Cys disulfide as in SEQ. ID. NO. 7, ID; NO; 7 peptide; MCH position numbering) [MCH analog SEQ. ID. NO. 51 (position 10: Asn)] |  |  |  | 106 | EC50 [6]: 23 nM; IC50 [7]: 0.23 nM
RCMLARVYRPC (N-terminal acetyl, C-terminal amide, Cys-Cys disulfide as in SEQ. ID. NO. 7, ID; NO; 7 peptide; MCH position numbering) [MCH analog SEQ. ID. NO. 47 (position 10: Ala)] |  |  |  | 104 | EC50 [6]: 31 nM; IC50 [7]: 0.59 nM

Reference: patent publication US20030105278A1 (MERK, published 2003)
